For the assay, the target named is T1, GFP-MAL^TIR fusion protein (EGFP residues 3-239; MAL residues 79-221) (UniProt P58753 79-221).
T1 construct: MAL (MyD88 adaptor-like/TIRAP), TIR domain, residues 79-221; Printed order of the fusion: EGFP residues 3-239, GSGGS linker, MAL residues 79-221, in pMCSG7; source: E. coli BL21 (DE3), purified (HisTrap FF, Superdex 75)
As to the kind of experiment: crystal growth assay (DIC and GFP fluorescence microscopy); GFP-MAL^TIR-MyD88^TIR or MAL^TIR-MyD88^TIR seeds washed three times, diluted and mixed with MyD88^TIR (95 µM); 10 mM HEPES pH 7.5, 150 mM NaCl, 30 °C. As to conditions: both partners purified.

T1 sequence (P58753 79-221): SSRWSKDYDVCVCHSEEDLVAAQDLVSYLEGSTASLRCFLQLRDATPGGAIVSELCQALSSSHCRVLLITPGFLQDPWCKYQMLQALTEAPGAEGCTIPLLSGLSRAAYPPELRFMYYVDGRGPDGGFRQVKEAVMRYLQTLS

B1: MyD88 TIR domain (MyD88^TIR), residues 155-296 (domain or fragment, human, UniProt Q99836 155-296, looked up)
chain: GHMPERFDAFICYCPSDIQFVQEMIRQLEQTNYRLKLCVSDRDVLPGTCVWSIASELIEKRCRRMVVVVSDDYLQSKECDFQTKFALSLSPGAHQKRLIPIKYKAMKKEFPSILRFITVCDYTNPCTKSWFWTRLAKALSLP
notes: MyD88 (myeloid differentiation primary response gene 88), TIR domain, residues 155-296 in pET28b; Forms open-ended two-stranded higher-order assemblies in the MAL-induced microcrystals; source: E. coli BL21 (DE3), purified (HisTrap FF, Superdex 75)
As to B1, the binding result is reported as “binds”.
